# Laboratory results from patent US20240124560A1.
# Assays:
# [1] = molecular target: HIV-1 Env of isolate COT6, mutant D674T (HIV-1); assay: cell-based or functional assay
# [2] = molecular target: HIV-1 Env of isolate COT6, mutant D674E (HIV-1); assay: cell-based or functional assay
# [3] = molecular target: HIV-1 Env of isolate COT6 (wild-type) (HIV-1); assay: cell-based or functional assay
# 2F5-specific peptide = assay: ELISA on peptide MPER (659-671), antibody titrated
Substance,Fold increase in IC50 relative to wild-type COT6 [1] [fold],Fold increase in IC50 relative to wild-type COT6 [2] [fold],"Fold increase in IC50 (wild-type COT6, the reference) [3] [fold]",EC50 (read off the curve) (2F5-specific peptide) [ng/mL]
10E8 (antibody),36,17.5,1,–
2F5 (antibody),–,–,–,6
